# Measurements published in PMC8420576 (2021).
# B1: VHH antibody Re5D06, labeled with two PEG11-biotins (VHH)
# VHH: QVQLVESGGGLVQPGGSLRLSCAASGITLDYYAIGWFRQAPGKEREGVSRIRSSDGSTNYADSVKGRFTMSRDNAKNTVYLQMNSLKPEDTAVYYCAYGPLTKYGSSWYWPYEYDYWGQGTQVTVSS
# B2: VHH antibody Re9F06 (VHH)
# VHH: QVQLVESGGGLVQAGGSLRLSCAASGRTFSNDALGWFRQAPRKEREFVAAINWNSGTYYADSVKGRFTISRDNAKNTVYLQMNSLKPEDTAVYSCAAASDYGLPREDFLYDYWGQGTQVTVSS
# Tests used:
# Experiment in all cases: BLI
# [1] = target: T1, SARS-CoV-2 RBD wt (GenScript Z03479) (SARS-CoV-2, UniProt P0DTC2 319-541)
# [2] = target: T1, SARS-CoV-2 RBD wt (GenScript Z03479); remark: listed apart in the source
# [3] = target: T2, SARS-CoV-2 Spike RBD (residues 334–527), C-terminal Avi-His6 tag, biotinylated (SARS-CoV-2, UniProt P0DTC2 334-527, biotin on the Avi-tag)
# [4] = target: T2, SARS-CoV-2 Spike RBD (residues …); remark: listed apart in the source
binder,measurement,setting,value
B1,koff,[1],1.6e-06 s⁻¹
same,Kd,[2],< 0.01 nM
B2,Kd,[3],270 nM
same,koff,[4],0.00045 s⁻¹
